From US20080194482A1, “Selective Apac2 Receptor Peptide Agonists” (priority 2005, published 2008)
Square brackets hold non-standard residues; d marks the D form. Ends that are not written are not given here. * marks the point of attachment. Orn = NCCC[C@H](N)C(=O)O; Hexanoyl = CCCCCC(=O)*; Aib = CC(C)(N)C(=O)O

T1: human VPAC2 receptor (human, UniProt P41587 24-438)
T1 sequence (looked up): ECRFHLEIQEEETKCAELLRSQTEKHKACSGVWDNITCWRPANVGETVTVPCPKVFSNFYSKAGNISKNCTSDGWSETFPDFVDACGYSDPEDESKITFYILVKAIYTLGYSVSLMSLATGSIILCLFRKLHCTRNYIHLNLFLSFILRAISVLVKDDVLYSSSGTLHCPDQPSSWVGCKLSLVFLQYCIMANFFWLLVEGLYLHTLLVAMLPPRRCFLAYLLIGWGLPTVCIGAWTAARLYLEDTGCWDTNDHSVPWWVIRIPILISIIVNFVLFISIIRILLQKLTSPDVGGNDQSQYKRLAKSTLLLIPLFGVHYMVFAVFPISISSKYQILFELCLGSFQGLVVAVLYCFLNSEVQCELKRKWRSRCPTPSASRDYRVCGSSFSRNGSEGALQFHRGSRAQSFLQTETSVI

T2: rat VPAC1 receptor (rat, UniProt P30083 31-459)
T2 sequence (looked up): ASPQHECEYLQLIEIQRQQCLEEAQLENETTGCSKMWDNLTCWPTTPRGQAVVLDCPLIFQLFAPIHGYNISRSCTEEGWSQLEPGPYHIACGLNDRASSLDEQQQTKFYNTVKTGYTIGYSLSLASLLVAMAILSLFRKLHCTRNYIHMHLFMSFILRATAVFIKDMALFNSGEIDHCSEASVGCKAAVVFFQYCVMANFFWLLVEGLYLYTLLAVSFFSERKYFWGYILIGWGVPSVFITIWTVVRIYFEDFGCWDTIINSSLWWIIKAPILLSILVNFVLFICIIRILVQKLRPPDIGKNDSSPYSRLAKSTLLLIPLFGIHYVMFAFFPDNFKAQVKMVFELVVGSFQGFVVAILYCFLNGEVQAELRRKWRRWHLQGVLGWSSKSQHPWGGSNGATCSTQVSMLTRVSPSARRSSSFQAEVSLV

T3: rat VPAC2 receptor (rat, UniProt P35000 23-437)
T3 sequence (looked up): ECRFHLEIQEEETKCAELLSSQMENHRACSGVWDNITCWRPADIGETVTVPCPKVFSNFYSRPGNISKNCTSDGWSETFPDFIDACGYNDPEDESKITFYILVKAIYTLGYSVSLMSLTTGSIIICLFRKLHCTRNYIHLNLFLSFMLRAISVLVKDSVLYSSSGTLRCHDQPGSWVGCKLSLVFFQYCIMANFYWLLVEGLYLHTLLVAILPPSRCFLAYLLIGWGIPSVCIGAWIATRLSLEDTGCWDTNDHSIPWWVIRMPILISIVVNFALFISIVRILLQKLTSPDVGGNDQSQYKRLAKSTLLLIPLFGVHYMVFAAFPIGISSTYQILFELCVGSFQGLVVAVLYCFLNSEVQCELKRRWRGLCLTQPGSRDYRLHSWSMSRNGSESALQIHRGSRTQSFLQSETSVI


How the values were obtained:
human VPAC2 receptor [1] = target: T1, human VPAC2 receptor; assay: cell-based or functional assay
human VPAC2 receptor [2] = target: T1, human VPAC2 receptor; assay: filter binding, human VPAC2 membranes, competition with 125I-VIP;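 also: assay plate incubated 1 h with shaking, then filtered, with filter-retained counts measured after adding scintillant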
Protocol: The filled plate is incubated for 1 hour with shaking.
The transfer from assay plate to filter plate is conducted. The blocking buffer is aspirated by vacuum filtration and washed two times with flush buffer. 90 μL is transferred from the assay plate to the filter plate. The 90 μL transferred from assay plate is aspirated and washed three times with 200 μL flush buffer. The plastic support is removed. It is dried for 1 hour at 60° C. 30 μL Microscint is added. The count is performed.

rat VPAC1 receptor = target: T2, rat VPAC1 receptor; assay: cell-based or functional assay
rat VPAC2 receptor = target: T3, rat VPAC2 receptor; assay: cell-based or functional assay

Row | Binder | Human VPAC2 Receptor: Alpha Screen (EC50; nM), cAMP generation (human VPAC2 receptor [1]) | IC50 (human VPAC2 receptor [2]) | Rat VPAC1 Receptor: DiscoveRx (EC50; nM), cAMP generation (rat VPAC1 receptor) | Rat VPAC2 Receptor: DiscoveRx (EC50; nM), cAMP generation (rat VPAC2 receptor)
1 | HSDAVFTDNYTXLRXQVAAXKYSQSIXNXGGPSSGAPPPS (N-terminal hexanoyl (C6); Orn at 12, 27 and 29; Aib at 15 and 20) [VPAC2 receptor peptide agonist P384] | 6.7 nM | 22.2 nM | > 600 nM | 8.05 nM
2 | Hexanoyl-HSDAVFTDNYT[Orn]SR[Aib]QVAA[Aib]KYLQSI[Orn]N[Orn]GGPSSGAPPPS [VPAC2 receptor peptide agonist P391] | 0.48 nM | 3.67 nM | 9.09 nM | 0.5 nM
3 | Hexanoyl-HSEAVFTENYT[Orn]LR[Aib]QVAA[Aib]KYLQSI[Orn]N[Orn]GGPSSGAPPPS [VPAC2 receptor peptide agonist P362] | 0.58 nM | 1.91 nM | 35.9 nM | 1.22 nM
4 | HSDAVFTDNYTXLRXQVAAXKYLQSSXNXGGPSSGAPPPS (N-terminal hexanoyl (C6); Orn at 12, 27 and 29; Aib at 15 and 20) [VPAC2 receptor peptide agonist P382] | 0.33 nM | 2.17 nM | 8.21 nM | 0.37 nM
5 | HSDAVFTDNYTXLRXQVAAXKSLQSIXNXGGPSSGAPPPS (N-terminal hexanoyl (C6); Orn at 12, 27 and 29; Aib at 15 and 20) [VPAC2 receptor peptide agonist P385] | 23.9 nM | 99.2 nM | 96.8 nM | 28.8 nM
6 | HSDAVFTDNYTXLRXQVASXKYLQSIXNXGGPSSGAPPPS (N-terminal hexanoyl (C6); Orn at 12, 27 and 29; Aib at 15 and 20) [VPAC2 receptor peptide agonist P387] | 0.47 nM | 1.39 nM | 20.4 nM | 0.4 nM
7 | Hexanoyl-HSDAVFTDQYT[Orn]LR[Aib]QVAA[Aib]KYLQSI[Orn]Q[Orn]GGPSSGAPPPS [VPAC2 receptor peptide agonist P363] | 0.27 nM | 0.25 nM | 1.44 nM | 0.09 nM
8 | HSDAVFTDNYTXLRXQVSAXKYLQSIXNXGGPSSGAPPPS (N-terminal hexanoyl (C6); Orn at 12, 27 and 29; Aib at 15 and 20) [VPAC2 receptor peptide agonist P388] | 2760 nM | 100 nM | > 2000 nM | 709 nM
9 | HSDAVFTDNYTXLRXQSAAXKYLQSIXNXGGPSSGAPPPS (N-terminal hexanoyl (C6); Orn at 12, 27 and 29; Aib at 15 and 20) [VPAC2 receptor peptide agonist P389] | 0.16 nM | 0.82 nM | 4.4 nM | 0.21 nM
10 | HSDAVFTDNYTXLRXQVAAXKYLSSIXNXGGPSSGAPPPS (N-terminal hexanoyl (C6); Orn at 12, 27 and 29; Aib at 15 and 20) [VPAC2 receptor peptide agonist P383] | 0.12 nM | 5.01 nM | 1.68 nM | 0.18 nM
11 | HSDAVFTDNYTXLRXQVAAXSYLQSIXNXGGPSSGAPPPS (N-terminal hexanoyl (C6); Orn at 12, 27 and 29; Aib at 15 and 20) [VPAC2 receptor peptide agonist P386] | 0.65 nM | 5.92 nM | 4.34 nM | 0.28 nM
